Measured values reported in patent publication US20240270821A1, “GIP/GLP1/GCG TRI-RECEPTOR AGONISTS AND USES THEREOF” (priority 2023, published 2024).
Numbering of substitutions follows the chain as printed.

T1: human GIP receptor (human) (UniProt P48546)
T1 sequence (looked up): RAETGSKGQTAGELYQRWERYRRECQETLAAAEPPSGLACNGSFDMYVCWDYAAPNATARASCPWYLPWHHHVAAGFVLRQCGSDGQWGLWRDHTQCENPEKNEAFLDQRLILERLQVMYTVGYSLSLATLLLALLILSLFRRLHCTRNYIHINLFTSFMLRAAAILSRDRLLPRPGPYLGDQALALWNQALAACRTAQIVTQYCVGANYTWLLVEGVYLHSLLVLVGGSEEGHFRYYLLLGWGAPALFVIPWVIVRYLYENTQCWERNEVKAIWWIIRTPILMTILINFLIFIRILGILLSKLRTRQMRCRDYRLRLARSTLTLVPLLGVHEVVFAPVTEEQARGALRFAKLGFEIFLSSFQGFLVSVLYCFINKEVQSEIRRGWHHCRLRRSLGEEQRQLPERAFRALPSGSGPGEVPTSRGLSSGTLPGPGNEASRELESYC

B1: Example 1197 (peptide)
chain: YXQGTXTSDXXIXLDXKAQXEFIEXLIEGGPPSXXPPPXGGGE
modifications: Lys acylated AEEA-γGlu-C18 diacid; non-natural residues; C-amide; synthetic construct; SITE 2: note = 2-Aminoisobutyric Acid; SITE 6: note = alpha-methyl-2-fluoro-L-phenylalanine; SITE 10: note = 3-(4-Pyridyl)-L-alanine; SITE 11: note = alpha-methyl-L-serine; SITE 13: note = alpha-methyl-leucine; SITE 16: note = L-ornithine; SITE 17: note = Lysine is chemically mo
B2: Example 1201 (peptide)
chain: B1 chain with X35E, X39S
modifications: non-natural residues; acylated Lys; C-terminal amide; synthetic construct; SITE 2: note = 2-Aminoisobutyric Acid; SITE 6: note = alpha-methyl-2-fluoro-L-phenylalanine; SITE 10: note = 3-(4-Pyridyl)-L-alanine; SITE 11: note = alpha-methyl-L-serine; SITE 13: note = alpha-methyl-leucine; SITE 16: note = L-ornithine; SITE 17: note = Lysine is chemically mo
B3: Example 1199 (peptide)
chain: B1 chain with X39S
modifications: Lys acylated with AEEA-γGlu-C18 diacid; non-natural residues; C-amide; synthetic construct; SITE 2: note = 2-Aminoisobutyric Acid; SITE 6: note = alpha-methyl-2-fluoro-L-phenylalanine; SITE 10: note = 3-(4-Pyridyl)-L-alanine; SITE 11: note = alpha-methyl-L-serine; SITE 13: note = alpha-methyl-leucine; SITE 16: note = L-ornithine; SITE 17: note = Lysine is chemically mo
B4: Example 1186 (peptide)
chain: YXQGTFTSDXXQXLDXKAQXQFIQXLIEXGPSSGAPPPSGGGE
modifications: not fully specified; Aib, 4Pal, Me4Pal, alpha-methyl residues, Orn, lipidated Lys, amide; synthetic construct; SITE 2: note = 2-Aminoisobutyric Acid; SITE 10: note = 3-(4-Pyridyl)-L-alanine; SITE 11: note = alpha-methyl-L-serine; SITE 13: note = alpha-methyl-leucine; SITE 16: note = L-ornithine; SITE 17: note = Lysine is chemically modified through conjugation of the epsilon-amino group
B5: Example 1188 (peptide)
chain: B4 chain with X29G, A35E
modifications: not fully specified; non-natural residues, lipidated Lys, C-terminal amide; synthetic construct; SITE 2: note = 2-Aminoisobutyric Acid; SITE 10: note = 3-(4-Pyridyl)-L-alanine; SITE 11: note = alpha-methyl-L-serine; SITE 13: note = alpha-methyl-leucine; SITE 16: note = L-ornithine; SITE 17: note = Lysine is chemically modified through conjugation of the epsilon-amino group
B6: Example 1187 (peptide)
chain: B4 chain with Q24E
modifications: not fully specified; acylated lysine γGlu-C18 diacid; non-natural residues; C-terminal amide; synthetic construct; SITE 2: note = 2-Aminoisobutyric Acid; SITE 10: note = 3-(4-Pyridyl)-L-alanine; SITE 11: note = alpha-methyl-L-serine; SITE 13: note = alpha-methyl-leucine; SITE 16: note = L-ornithine; SITE 17: note = Lysine is chemically modified through conjugation of the epsilon-amino group
B7: Example 1209 (peptide)
chain: YXQGTXTSDXSIXLDXXAQXXFIEXLIEGGPSSGEPPPETE
modifications: synthetic construct; SITE 2: note = 2-Aminoisobutyric Acid; SITE 6: note = alpha-methyl-2-fluoro-L-phenylalanine; SITE 10: note = 3-(4-Pyridyl)-L-alanine; SITE 13: note = alpha-methyl-leucine; SITE 16: note = L-ornithine; SITE 17: note = Ornithine is chemically modified through conjugation of the ep
B8: Example 1204 (peptide)
chain: YXQATXTSDXXIXLDXKAQXEFIEXLVEGGPSSGAPPPSGS
modifications: synthetic construct; SITE 2: note = 2-Aminoisobutyric Acid; SITE 4: note = D-amino acid; SITE 6: note = alpha-methyl-2-fluoro-L-phenylalanine; SITE 10: note = 3-(4-Pyridyl)-L-alanine; SITE 11: note = alpha-methyl-L-serine; SITE 13: note = alpha-methyl-leucine; SITE 16: note = L-ornithine; SITE 17: n
B9: Example 1189 (peptide)
chain: YXQGTXTSDXXIXLDXKAQXEFIEXLIEGGPPSXXPPPXGS
modifications: non-natural residues, C-terminal amide, acylated Lys with fatty diacid; synthetic construct; SITE 2: note = 2-Aminoisobutyric Acid; SITE 6: note = alpha-methyl-2-fluoro-L-phenylalanine; SITE 10: note = 3-(4-Pyridyl)-L-alanine; SITE 11: note = alpha-methyl-L-serine; SITE 13: note = alpha-methyl-leucine; SITE 16: note = L-ornithine; SITE 17: note = Lysine is chemically mo
B10: Example 1202 (peptide)
chain: B8 chain with A4G, E24Q, V27I
modifications: synthetic construct; SITE 2: note = 2-Aminoisobutyric Acid; SITE 6: note = alpha-methyl-2-fluoro-L-phenylalanine; SITE 10: note = 3-(4-Pyridyl)-L-alanine; SITE 11: note = alpha-methyl-L-serine; SITE 13: note = alpha-methyl-leucine; SITE 16: note = L-ornithine; SITE 17: note = Lysine is chemically mo

Molecular target: human glucagon receptor (human) (UniProt P47871)
Sequence (P47871 26-477): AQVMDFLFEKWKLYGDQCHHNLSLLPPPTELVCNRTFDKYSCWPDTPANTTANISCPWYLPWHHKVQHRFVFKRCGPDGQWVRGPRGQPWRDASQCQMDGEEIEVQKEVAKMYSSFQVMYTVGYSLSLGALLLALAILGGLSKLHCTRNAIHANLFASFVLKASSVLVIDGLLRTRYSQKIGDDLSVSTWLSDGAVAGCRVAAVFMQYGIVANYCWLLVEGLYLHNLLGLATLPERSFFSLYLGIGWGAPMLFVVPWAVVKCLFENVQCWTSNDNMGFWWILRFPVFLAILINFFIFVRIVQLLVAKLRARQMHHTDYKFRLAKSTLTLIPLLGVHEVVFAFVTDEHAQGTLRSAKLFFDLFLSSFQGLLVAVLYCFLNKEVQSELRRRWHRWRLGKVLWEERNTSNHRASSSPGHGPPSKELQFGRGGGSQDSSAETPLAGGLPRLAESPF
Assay: cell-based or functional assay

Row | Binder | Relative cAMP EC50 | cAMP Rel EC50 (in the presence of 1% HSA) | cAMP Rel EC50 (1% HSA)
1 | B1 | 1.88 nM | 288 nM | –
2 | B2 | 1.76 nM | 234 nM | –
3 | B3 | 2.05 nM | 352 nM | –
4 | B4 | 1.46 nM | 164 nM | –
5 | B5 | 1.16 nM | 130 nM | –
6 | B6 | 1.81 nM | 370 nM | –
7 | B7 | 0.97 nM | – | 124 nM
8 | B8 | 3.5 nM | – | 507 nM
9 | B9 | 1.59 nM | 248 nM | –
10 | B10 | 0.5 nM | – | 70.3 nM

Molecular target: hGLP-1R (Homo sapiens, UniProt P43220)
Sequence (P43220 24-463): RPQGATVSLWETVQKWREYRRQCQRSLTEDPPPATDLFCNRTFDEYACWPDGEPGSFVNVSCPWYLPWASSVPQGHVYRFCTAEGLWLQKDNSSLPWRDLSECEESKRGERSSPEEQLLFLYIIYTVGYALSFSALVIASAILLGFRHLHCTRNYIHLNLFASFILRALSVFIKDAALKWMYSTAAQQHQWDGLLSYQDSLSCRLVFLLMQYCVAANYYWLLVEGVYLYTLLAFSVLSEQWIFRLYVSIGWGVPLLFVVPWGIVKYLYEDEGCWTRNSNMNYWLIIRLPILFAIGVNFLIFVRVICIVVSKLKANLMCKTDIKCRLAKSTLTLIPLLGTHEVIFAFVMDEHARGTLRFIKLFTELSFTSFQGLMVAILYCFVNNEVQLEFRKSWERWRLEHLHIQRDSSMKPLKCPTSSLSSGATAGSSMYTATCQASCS
Assay: cell-based or functional assay

Row | Binder | Relative cAMP EC50 | cAMP Rel EC50 (in the presence of 1% HSA) | cAMP Rel EC50 (1% HSA)
11 | B1 | 0.407 nM | 46.1 nM | –
12 | B2 | 0.888 nM | 93.9 nM | –
13 | B3 | 0.5 nM | 63.9 nM | –
14 | B4 | 0.594 nM | 52.1 nM | –
15 | B5 | 1.01 nM | 77.1 nM | –
16 | B6 | 1.06 nM | 154 nM | –
17 | B7 | 0.41 nM | – | 37.7 nM
18 | B8 | 0.338 nM | – | 37.4 nM
19 | B9 | 0.292 nM | 45.4 nM | –
20 | B10 | 0.237 nM | – | 23.1 nM

Molecular target: T1, human GIP receptor (human)
Assay: cell-based or functional assay

Row | Binder | Relative cAMP EC50 | cAMP Rel EC50 (in the presence of 1% HSA) | cAMP Rel EC50 (1% HSA)
21 | B1 | 0.00666 nM | 0.639 nM | –
22 | B2 | 0.00959 nM | 1.02 nM | –
23 | B3 | 0.0076 nM | 0.733 nM | –
24 | B4 | 0.0404 nM | 3.17 nM | –
25 | B5 | 0.0914 nM | 7.02 nM | –
26 | B6 | 0.0648 nM | 7.11 nM | –
27 | B7 | 0.00819 nM | – | 0.565 nM
28 | B8 | 0.21 nM | – | 15.8 nM
29 | B9 | 0.00597 nM | 0.584 nM | –
30 | B10 | 0.00635 nM | – | 0.471 nM
